T1: hiR2-FL-F588A-T7 (human, UniProt Q6PJF5 1-856)
T1 sequence: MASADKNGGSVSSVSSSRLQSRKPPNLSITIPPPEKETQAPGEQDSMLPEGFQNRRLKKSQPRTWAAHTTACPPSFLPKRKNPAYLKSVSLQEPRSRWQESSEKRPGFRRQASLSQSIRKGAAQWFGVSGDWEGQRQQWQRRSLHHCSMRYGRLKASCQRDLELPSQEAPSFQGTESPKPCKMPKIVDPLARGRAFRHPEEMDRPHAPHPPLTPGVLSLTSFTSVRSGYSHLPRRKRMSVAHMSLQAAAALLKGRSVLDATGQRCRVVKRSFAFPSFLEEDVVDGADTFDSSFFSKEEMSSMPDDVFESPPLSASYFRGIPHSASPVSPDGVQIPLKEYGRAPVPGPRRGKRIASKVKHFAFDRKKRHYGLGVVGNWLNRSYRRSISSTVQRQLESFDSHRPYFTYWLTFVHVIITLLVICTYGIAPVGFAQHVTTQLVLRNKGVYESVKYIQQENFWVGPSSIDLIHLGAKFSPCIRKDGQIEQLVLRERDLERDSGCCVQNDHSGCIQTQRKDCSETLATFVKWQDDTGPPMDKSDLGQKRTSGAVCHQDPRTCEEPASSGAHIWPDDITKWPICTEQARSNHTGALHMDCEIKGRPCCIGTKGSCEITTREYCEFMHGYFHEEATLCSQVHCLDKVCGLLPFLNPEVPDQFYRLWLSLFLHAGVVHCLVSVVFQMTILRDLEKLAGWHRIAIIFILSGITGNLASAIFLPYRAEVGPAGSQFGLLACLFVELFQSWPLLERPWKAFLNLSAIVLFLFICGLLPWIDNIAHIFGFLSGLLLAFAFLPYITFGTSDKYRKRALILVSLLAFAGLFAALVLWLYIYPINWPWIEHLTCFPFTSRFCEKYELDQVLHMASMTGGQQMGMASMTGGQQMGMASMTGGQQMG

T2: hiR2-FL-C593A-T7 (human, UniProt Q6PJF5 1-856)
T2 construct: reduced surface expression reported
T2 sequence: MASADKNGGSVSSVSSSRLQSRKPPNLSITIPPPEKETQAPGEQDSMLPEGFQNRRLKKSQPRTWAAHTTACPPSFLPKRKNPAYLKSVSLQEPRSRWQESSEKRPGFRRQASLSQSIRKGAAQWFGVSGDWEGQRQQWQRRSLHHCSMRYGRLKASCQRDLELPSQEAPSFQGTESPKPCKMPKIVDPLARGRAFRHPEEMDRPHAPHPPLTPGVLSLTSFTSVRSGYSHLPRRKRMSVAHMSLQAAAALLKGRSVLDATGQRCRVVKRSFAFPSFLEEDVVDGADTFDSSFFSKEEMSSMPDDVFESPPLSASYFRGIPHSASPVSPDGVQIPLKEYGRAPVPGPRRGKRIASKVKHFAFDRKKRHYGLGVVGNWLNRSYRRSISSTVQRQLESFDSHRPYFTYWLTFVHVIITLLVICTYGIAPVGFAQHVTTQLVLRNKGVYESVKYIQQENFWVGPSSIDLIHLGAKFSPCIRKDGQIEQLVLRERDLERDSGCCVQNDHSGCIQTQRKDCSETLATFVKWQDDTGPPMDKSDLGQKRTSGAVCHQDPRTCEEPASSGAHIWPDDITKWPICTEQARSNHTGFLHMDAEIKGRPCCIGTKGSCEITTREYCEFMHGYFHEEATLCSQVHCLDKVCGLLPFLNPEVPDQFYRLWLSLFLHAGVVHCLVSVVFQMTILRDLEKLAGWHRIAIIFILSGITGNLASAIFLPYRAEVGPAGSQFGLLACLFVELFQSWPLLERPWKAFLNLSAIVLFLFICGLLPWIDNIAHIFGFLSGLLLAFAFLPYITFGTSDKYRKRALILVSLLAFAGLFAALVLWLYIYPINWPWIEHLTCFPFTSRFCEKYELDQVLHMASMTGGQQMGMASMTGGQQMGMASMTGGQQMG


Columns and labels:
hiR2-FL-F588A-T7 = target: T1, hiR2-FL-F588A-T7; experiment: FACS on MEF-DKO cells expressing the variant, 3 µg/ml antibody
Summary of the method: (§1)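 Flow cytometry read-out of binding to variant-expressing cells after two-step staining on ice: 1 h with antibody at 3 μg/ml, then 1 h with PE-labelled goat anti-mouse IgG F(ab′)2 diluted 1:100. Controls received FACS buffer without primary antibody.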

hiR2-FL-C593A-T7 = target: T2, hiR2-FL-C593A-T7; experiment: as above
Summary of the method: as §1

| Binder | loss of binding vs wild type (hiR2-FL-F588A-T7) [%] | loss of binding vs wild type (hiR2-FL-C593A-T7) [%] |
| --- | --- | --- |
| antibody 48 (antibody, V domains shown, mouse IgG, kappa light chain; also called clone #48; purified antibody 48) VH: QVQLQQSGTELVRPGTSVKVSCKASGYAFTNYLIEWVKQRPGQGLEWIGVINPGSGFTKYNEKFKGKATLTADKSSSTVYMHLSSLTSEDSAVYFCARGLYRAMDYWGQGTSVTVSS VL: DIQMTQSPASQSASLGESVTITCLASQTIATWLAWYQQKPGKSPQLLIYGATTLADGVPSRFSGGGSGTKFSFKISSLQAEDFVSYYCQQLYSTPYTFGGGTKLEIK | ≥ 30 | – |
| antibody 50 (antibody, V domains shown, mouse IgG, kappa light chain; also called clone #50; purified antibody 50) VH: QVQLQQSGAELVRPGASVKVSCKASGYAFSNYLIEWVKQRPGQGLEWIGVINPGSGFTKYNEKFKGKATLTADKSSSTAYMQLSSLTSEDSAVYFCARGLYRAMDYWGQGTSVTVSS VL: DIQMTQSPASQSASLGESVTITCLASQTIGTWLAWYQQKPGKSPQLLIYAAASLADGVPSRFSGGGSGTKFSFKISSLQAEDFVNYYCQQIYSTPYTFGGGTKLEIK | – | ≥ 30 |
